Key:
Test in all cases: Kinase Profiling Assay
Format in all cases: biochemical
SGK(h) = target: T1, SGK(h) (Homo sapiens, UniProt O00141)
T1 sequence (O00141 1-431): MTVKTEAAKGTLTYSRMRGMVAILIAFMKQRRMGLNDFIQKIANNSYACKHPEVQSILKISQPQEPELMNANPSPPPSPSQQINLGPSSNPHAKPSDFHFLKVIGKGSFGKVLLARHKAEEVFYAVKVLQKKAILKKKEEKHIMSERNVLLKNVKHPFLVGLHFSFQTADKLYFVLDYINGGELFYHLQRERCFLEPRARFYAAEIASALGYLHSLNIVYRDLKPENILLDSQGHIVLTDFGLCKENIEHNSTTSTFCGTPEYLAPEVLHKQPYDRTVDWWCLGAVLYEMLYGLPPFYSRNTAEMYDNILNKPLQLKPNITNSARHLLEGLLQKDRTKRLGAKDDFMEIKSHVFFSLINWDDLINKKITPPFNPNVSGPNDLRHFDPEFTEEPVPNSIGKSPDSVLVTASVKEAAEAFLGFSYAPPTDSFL

HIPK1(h) = HIPK1(h) (Homo sapiens, UniProt Q86Z02)
Rsk1(h) = Rsk1(h) (Homo sapiens, UniProt Q15418)
Pim-2(h) = Pim-2(h) (Homo sapiens, UniProt Q9P1W9); settings: 100 μM
PKCα(h) = PKCα(h) (Homo sapiens, UniProt P17252); settings: 100 μM
PKBβ(h) = PKBβ(h) (Homo sapiens, UniProt P31751); settings: 100 μM
MSK2(h) = MSK2(h) (Homo sapiens, UniProt O75676); settings: 100 μM
FAK(h) = FAK(h) (Homo sapiens, UniProt Q05397); settings: 100 μM
PhKγ2(h) = target: T2, PhKγ2(h) (Homo sapiens, UniProt P15735); settings: 100 μM
T2 sequence (P15735 1-406): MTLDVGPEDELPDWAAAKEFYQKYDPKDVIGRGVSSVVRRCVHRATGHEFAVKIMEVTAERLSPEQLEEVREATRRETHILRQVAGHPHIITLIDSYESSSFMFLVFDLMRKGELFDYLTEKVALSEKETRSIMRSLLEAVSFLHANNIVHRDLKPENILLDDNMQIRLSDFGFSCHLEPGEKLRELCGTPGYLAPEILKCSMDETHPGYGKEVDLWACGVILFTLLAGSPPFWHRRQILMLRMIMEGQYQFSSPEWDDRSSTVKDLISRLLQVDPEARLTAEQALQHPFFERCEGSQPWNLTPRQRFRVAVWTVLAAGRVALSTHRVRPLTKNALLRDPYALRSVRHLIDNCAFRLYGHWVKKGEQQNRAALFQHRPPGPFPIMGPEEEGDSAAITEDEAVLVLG

Syk(h) = Syk(h) (Homo sapiens, UniProt P43405); settings: 100 μM
EGFR(h) = EGFR(h) (Homo sapiens, UniProt P00533); settings: 100 μM
NEK11(h) = target: T3, NEK11(h) (Homo sapiens, UniProt Q8NG66); settings: 100 μM
T3 sequence (Q8NG66 1-645): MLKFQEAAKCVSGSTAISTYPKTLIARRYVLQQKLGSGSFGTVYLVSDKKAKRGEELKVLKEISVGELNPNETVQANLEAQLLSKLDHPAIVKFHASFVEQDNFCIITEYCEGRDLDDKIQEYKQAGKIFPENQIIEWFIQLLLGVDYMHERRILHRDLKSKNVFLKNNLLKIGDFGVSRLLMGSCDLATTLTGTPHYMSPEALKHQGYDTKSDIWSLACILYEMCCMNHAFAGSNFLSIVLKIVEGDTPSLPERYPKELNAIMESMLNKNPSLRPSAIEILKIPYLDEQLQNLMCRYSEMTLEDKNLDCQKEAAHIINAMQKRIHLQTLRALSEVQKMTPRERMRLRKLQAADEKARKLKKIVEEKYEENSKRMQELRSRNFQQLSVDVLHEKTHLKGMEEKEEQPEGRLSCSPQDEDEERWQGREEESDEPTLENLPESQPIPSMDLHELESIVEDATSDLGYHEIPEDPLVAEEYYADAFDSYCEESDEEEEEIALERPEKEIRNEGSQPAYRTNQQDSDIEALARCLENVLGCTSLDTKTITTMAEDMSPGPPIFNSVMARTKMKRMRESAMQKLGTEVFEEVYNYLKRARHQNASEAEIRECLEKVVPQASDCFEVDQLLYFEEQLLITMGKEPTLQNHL

PKCβII(h) = PKCβII(h) (Homo sapiens, UniProt P05771); settings: 100 μM
IRAK1(h) = IRAK1(h) (Homo sapiens, UniProt P51617); settings: 100 μM
CaMKIV(h) = target: T4, CaMKIV(h) (Homo sapiens, UniProt Q16566); settings: 100 μM
T4 sequence (Q16566 1-473): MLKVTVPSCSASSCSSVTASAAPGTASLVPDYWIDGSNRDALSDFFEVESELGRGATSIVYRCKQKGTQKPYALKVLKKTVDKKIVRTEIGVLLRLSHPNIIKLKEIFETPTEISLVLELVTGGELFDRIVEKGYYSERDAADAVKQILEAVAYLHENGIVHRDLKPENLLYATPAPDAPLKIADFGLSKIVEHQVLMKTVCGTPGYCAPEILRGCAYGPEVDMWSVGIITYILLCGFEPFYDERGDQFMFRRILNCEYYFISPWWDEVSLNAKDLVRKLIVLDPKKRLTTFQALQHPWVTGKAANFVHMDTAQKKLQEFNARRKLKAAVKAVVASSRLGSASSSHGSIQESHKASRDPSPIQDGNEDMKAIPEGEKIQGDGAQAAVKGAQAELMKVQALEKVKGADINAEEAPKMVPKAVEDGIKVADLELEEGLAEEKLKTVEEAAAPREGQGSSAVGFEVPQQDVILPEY

PKCη(h) = PKCη(h) (Homo sapiens, UniProt P24723); settings: 100 μM
Sequence of PKCη(h) (P24723 whole entry): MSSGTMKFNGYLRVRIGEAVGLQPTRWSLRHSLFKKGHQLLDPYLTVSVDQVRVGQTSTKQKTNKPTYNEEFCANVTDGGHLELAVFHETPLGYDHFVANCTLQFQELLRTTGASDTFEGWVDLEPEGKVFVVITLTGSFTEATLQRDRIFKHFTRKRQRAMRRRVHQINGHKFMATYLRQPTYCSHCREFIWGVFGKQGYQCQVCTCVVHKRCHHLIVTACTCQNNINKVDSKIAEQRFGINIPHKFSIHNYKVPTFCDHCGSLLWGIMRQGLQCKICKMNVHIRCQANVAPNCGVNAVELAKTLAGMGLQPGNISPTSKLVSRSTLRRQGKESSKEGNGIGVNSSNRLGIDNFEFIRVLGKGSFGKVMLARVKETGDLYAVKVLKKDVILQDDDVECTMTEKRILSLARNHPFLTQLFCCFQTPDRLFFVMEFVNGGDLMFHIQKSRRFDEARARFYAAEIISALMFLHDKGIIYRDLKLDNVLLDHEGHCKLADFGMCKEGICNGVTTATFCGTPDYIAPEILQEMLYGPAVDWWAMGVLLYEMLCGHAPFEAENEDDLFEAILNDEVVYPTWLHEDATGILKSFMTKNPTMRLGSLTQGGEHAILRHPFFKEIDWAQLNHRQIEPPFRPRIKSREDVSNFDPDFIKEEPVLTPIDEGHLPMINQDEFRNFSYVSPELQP

Sequence of IRAK1(h) (P51617 whole entry): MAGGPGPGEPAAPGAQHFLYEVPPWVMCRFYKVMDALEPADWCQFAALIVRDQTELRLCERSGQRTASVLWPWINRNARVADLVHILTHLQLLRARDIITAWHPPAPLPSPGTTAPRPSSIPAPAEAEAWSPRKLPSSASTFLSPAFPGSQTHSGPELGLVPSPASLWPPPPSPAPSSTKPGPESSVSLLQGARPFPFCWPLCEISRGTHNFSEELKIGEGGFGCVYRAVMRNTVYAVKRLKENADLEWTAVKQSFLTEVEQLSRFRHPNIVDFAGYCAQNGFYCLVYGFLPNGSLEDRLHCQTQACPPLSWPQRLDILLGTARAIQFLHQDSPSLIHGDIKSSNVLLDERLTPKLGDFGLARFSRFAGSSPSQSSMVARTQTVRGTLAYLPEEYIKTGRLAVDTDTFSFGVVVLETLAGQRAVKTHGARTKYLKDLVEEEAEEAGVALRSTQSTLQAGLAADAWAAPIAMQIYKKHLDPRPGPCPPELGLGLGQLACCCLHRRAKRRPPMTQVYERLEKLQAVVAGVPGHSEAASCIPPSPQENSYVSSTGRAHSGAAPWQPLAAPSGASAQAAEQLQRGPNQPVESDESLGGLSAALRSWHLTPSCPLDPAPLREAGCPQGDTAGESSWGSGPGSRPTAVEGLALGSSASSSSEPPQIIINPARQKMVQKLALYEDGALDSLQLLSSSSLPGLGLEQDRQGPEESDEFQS
Sequence of HIPK1(h) (Q86Z02 whole entry): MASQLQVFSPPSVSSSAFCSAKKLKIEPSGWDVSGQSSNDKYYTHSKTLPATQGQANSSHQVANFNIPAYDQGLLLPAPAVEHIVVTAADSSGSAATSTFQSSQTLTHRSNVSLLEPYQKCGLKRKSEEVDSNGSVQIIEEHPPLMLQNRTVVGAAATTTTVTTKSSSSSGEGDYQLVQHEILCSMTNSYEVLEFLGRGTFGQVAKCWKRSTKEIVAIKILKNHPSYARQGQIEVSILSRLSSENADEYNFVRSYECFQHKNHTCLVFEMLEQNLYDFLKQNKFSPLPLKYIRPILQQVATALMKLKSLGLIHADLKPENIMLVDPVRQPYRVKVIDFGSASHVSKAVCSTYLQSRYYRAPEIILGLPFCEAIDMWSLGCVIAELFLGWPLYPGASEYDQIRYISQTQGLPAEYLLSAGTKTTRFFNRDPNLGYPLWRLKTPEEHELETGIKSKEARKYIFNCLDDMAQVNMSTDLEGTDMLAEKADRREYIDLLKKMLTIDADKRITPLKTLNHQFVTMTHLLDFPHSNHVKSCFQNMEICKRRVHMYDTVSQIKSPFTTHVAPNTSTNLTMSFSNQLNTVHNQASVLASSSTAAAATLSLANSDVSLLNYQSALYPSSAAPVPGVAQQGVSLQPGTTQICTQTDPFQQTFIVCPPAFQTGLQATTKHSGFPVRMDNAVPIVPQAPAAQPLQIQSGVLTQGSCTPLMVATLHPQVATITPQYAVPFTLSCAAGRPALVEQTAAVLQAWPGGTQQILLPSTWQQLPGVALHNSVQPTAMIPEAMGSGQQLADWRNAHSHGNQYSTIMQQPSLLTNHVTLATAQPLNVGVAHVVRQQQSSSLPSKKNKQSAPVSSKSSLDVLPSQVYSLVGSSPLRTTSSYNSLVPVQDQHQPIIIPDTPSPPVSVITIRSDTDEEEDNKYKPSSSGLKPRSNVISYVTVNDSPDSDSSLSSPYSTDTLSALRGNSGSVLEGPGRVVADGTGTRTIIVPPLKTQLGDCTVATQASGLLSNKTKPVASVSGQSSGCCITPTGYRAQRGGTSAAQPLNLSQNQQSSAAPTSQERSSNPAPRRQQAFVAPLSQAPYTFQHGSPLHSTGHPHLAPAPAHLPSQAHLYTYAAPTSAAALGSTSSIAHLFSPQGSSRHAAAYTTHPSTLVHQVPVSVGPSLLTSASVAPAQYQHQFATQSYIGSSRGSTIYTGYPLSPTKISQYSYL
Sequence of Rsk1(h) (Q15418 whole entry): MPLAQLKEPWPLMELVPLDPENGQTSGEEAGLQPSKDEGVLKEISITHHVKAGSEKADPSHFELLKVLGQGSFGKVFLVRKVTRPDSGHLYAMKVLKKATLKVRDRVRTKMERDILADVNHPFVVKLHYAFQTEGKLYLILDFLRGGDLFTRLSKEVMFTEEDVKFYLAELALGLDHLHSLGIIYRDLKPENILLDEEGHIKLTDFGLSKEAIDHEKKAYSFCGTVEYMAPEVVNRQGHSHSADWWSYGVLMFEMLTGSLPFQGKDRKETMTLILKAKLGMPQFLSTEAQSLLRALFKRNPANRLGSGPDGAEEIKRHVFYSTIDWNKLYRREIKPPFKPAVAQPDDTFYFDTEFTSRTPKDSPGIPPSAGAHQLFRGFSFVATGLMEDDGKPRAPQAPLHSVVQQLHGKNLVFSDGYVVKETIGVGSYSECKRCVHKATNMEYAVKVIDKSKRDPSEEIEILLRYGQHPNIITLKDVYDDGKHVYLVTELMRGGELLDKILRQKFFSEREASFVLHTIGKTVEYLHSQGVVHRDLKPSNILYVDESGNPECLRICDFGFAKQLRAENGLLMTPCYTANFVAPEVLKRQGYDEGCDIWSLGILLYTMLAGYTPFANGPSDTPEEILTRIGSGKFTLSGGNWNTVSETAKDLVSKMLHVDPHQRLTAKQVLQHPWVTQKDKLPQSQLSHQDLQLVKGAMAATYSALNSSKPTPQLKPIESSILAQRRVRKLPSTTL
Sequence of PKCβII(h) (P05771 1-673 isoform P05771-2): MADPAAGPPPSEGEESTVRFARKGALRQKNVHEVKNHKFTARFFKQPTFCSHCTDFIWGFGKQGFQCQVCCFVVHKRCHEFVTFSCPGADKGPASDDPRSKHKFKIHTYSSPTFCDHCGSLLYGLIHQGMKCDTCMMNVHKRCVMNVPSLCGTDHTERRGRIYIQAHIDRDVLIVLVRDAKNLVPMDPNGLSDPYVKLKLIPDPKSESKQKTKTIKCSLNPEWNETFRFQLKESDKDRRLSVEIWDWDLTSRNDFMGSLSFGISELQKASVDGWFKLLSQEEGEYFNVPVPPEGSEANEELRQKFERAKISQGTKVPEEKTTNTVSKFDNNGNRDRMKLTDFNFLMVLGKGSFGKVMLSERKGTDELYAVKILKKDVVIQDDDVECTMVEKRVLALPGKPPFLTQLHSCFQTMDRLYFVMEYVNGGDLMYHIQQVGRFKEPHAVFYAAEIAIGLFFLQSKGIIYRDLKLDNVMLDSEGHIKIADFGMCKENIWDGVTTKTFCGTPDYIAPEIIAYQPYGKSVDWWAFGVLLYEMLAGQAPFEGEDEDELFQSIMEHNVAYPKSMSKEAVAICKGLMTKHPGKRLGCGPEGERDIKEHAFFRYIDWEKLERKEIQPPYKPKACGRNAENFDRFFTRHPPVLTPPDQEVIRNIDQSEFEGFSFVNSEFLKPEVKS
Sequence of Pim-2(h) (Q9P1W9 whole entry): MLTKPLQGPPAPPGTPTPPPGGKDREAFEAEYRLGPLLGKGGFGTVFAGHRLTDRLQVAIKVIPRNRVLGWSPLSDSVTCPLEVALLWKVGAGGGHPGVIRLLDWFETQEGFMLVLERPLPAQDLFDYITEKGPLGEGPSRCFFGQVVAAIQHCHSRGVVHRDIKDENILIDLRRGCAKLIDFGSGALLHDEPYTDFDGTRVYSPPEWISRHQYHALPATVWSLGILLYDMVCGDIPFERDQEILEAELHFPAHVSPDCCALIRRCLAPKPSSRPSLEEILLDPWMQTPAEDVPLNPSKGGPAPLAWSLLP

| Substance | activity at 100 µM (SGK(h)) | activity at 100 µM (HIPK1(h)) | activity at 100 µM (Rsk1(h)) | % activity (Pim-2(h)) | % activity (PKCα(h)) | % activity (PKBβ(h)) | % activity (SGK(h); 100 μM) | % activity (HIPK1(h); 100 μM) | % activity (MSK2(h)) | % activity (FAK(h)) | % activity (PhKγ2(h)) | % activity (Syk(h)) | % activity (EGFR(h)) | % activity (NEK11(h)) | % activity (PKCβII(h)) | % activity (IRAK1(h)) | % activity (CaMKIV(h)) | % activity (PKCη(h)) | % activity (Rsk1(h); 100 μM) |
| --- | --- | --- | --- | --- | --- | --- | --- | --- | --- | --- | --- | --- | --- | --- | --- | --- | --- | --- | --- |
| H-YARAAARQARAKALARQLGVAA-OH [MMI-0100] | 128% | 94% | 86% |  |  |  |  |  |  |  |  |  |  |  |  |  |  |  |  |
| HRRIKAWLKKIKALARQLGVAA (Mammalian) [MMI-0500] |  |  |  | 46% | 3% | 21% | 2% | 47% | 14% | 94% | 16% | 5% | -1% | 2% | 3% | 5% | -1% | 45% | 34% |
| YARAAARQARAKALNRQLGVA (Mammalian) [MMI-0200] |  |  |  | 74% | 100% | 250% |  |  | 88% | 110% | 86% | 36% | 83% | 95% | 100% | 101% | 71% | 101% |  |

Reference: patent publication US10087225B2, “Formulation of MK2 inhibitor peptides” (MOERAE MATRIX, INC., priority 2015, dated 2018)
